Reference: patent publication US20200216558A1 (US Dept. of Health and Human Services, published 2020)

T1: recombinant GPC2-hFc fusion protein (human, UniProt Q8N158 24-553)
T1 construct: range 24-553; Made in 293T cells with an IL-2 secretion signal (not part of the secreted protein); biotinylated for the Octet assay; also called GPC2 protein; recombinant human GPC2; not shown: human IgG Fc (hFc) at the C terminus
T1 sequence (looked up): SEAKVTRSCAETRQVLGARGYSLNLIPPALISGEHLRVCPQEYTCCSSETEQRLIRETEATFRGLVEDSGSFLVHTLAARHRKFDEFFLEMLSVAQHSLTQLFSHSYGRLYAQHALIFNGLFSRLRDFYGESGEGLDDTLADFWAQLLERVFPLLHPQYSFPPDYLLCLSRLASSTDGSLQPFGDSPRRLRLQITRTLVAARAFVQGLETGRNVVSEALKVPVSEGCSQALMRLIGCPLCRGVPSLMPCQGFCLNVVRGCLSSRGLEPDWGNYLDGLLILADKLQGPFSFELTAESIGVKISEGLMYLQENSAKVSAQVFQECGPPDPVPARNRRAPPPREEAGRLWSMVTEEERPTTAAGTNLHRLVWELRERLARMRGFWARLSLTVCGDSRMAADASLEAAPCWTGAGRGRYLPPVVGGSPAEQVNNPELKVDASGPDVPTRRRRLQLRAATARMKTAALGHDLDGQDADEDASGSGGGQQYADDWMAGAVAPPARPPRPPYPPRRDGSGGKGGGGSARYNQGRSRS

T2: recombinant human GPC1 (human, UniProt P35052 24-530, limits assumed)
T2 sequence (looked up): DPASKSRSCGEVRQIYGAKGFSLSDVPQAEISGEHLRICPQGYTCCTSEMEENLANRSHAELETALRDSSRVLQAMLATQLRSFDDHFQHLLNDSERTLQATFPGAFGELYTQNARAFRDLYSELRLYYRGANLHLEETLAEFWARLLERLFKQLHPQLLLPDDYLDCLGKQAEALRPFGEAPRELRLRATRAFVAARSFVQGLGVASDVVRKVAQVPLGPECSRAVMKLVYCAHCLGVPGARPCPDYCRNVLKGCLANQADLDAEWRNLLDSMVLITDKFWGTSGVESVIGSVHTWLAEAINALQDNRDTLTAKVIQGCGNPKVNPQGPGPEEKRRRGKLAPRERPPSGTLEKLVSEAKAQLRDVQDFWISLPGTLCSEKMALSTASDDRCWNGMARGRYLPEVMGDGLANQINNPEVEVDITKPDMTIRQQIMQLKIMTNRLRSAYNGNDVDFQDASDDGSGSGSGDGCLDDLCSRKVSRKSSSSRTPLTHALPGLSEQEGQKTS

T3: recombinant mouse GPC2 (mouse, UniProt Q8BKV1 22-556, limits assumed)
T3 sequence (looked up): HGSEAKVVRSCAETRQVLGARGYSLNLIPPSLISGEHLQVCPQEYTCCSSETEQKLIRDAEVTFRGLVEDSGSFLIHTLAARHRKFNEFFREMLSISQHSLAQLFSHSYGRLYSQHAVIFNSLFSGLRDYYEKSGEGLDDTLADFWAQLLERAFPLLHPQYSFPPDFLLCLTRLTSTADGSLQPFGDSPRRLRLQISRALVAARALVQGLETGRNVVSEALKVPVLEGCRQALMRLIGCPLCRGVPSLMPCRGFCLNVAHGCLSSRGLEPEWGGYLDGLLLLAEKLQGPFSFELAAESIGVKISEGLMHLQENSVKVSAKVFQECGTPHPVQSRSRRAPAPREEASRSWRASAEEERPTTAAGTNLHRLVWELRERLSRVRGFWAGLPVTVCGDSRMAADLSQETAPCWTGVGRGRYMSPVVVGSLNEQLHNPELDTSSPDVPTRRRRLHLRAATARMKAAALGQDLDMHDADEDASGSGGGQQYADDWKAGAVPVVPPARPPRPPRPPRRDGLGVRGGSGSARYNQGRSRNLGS

B1: VH single domain antibody LH6 (phage clone) (VHH)
VHH: QVQLVQSGGGLVQPGGSLRLSCAASDFYFDDYEMSWVRQAPGKGLEWVSTISGSGGGTYYADSVKGRFTISRDNSKNTLYLQMNTLRAEDTATYYCARGYSYDDSRYFDYWGQGTLVTVSS
notes: Human VH single domain
B2: VH single domain antibody LH2 (phage clone) (VHH)
VHH: QVQLVQSGGGLVQPGGSLRLSCAASDFYFYSYEVSWVRQAPGKALEWIGYIYYSGSTTYNPSLKSRVTISRDNSKNTLYLQMNTLRAEDTAIYYCAVRDNWNDVDYWGQGTLVTVSS
notes: Human VH single domain
B3: VH single domain antibody LH3 (phage clone) (VHH)
VHH: QVQLVQSGGGLVQPGGSLRLSCAASSFSFADYEMSWVRQAPGKALEWIGRIYTSGSTNYNPSLKSRVTISRDNSKNTLYLQMNTLRAEDTATYYCARGYSGYDGSHYFDYWGQGTLVTVSS
notes: Human VH single domain
B4: LH7-Fc fusion protein (Fc fusion)
chain: QVQLVQSGGGLVQPGGSLRLSCAASDFYFYDYEMSWVRQAPGKGLEWIGTVSYSGSTYYNPSLKSRVTISRDNSKNTLYLQMNTLRAEDTAMYYCARGYSYDDSRYFDYWGQGTLVTVSS
notes: Soluble LH7 as used in Octet, flow cytometry and HEK293 Supertopflash assays; also called LH7 antibody; LH7 single domain antibody; not shown: Fc: antibodies were fused with either human Fc (hFc) or mouse IgG Fc (mFc); which one was used in this assay, its subcla
B5: LH7-PE38 monomeric immunotoxin (other)
VH: B4 chain
B6: VH single domain antibody LH7 (phage clone) (VHH)
VHH: B4 chain
notes: Human VH single domain
B7: VH single domain antibody LH4 (phage clone) (VHH)
VHH: QVQLVQSGGGLVQPGGSLRLSCAASSFYFDDYEMSWVRQAPGKALEWIGRIYTSGSTNYNPSLKSRVTISRDNSKNTLYLQMNTLRAEDTATYYCARGYCSGGSCYFDYWGQGTLVTVSS
notes: Human VH single domain
B8: LH4-PE38 (other)
VH: B7 VHH
notes: One of the three immunotoxins of group m11; also called LH4-PE38 immunotoxin
B9: LH1-PE38 (other)
VH: QVQLVQSGGGLVQPGGSLRLSCAASDFDFAAYEMSWVRQAPGKGLEWIGEINHSGSTTYNPSLKSRVTISRDNSKNTLYLQMNTLRAEDTAVYYCATAVHYYDSSGYYHDAFDIWGQGTLVTVSS
notes: One of the three immunotoxins of group m11; also called LH1-PE38 immunotoxin
B10: VH single domain antibody LH1 (phage clone) (VHH)
VHH: B9 VH
notes: Human VH single domain (not camelid)

Tests used:
[1] = molecular target: T1, recombinant GPC2-hFc fusion protein; assay: monoclonal phage ELISA, coated GPC2-hFc vs BSA
Method: (§1) Both plate and phage were blocked with 3% skim milk in PBS/0.05% Tween-20 for 1 hour at room temperature. Then pre-blocked phage supernatant was added to the plate. Binding was detected by HRP-conjugated mouse anti-M13 antibody (GE Healthcare).

recombinant human GPC1 = molecular target: T2, recombinant human GPC1; assay: monoclonal phage ELISA on recombinant glypicans
Method: as §1

recombinant human GPC3 = recombinant human GPC3 (human, UniProt P51654 25-559, limits assumed); assay: monoclonal phage ELISA on recombinant glypicans
Sequence of recombinant human GPC3 (P51654 25-559 limits assumed): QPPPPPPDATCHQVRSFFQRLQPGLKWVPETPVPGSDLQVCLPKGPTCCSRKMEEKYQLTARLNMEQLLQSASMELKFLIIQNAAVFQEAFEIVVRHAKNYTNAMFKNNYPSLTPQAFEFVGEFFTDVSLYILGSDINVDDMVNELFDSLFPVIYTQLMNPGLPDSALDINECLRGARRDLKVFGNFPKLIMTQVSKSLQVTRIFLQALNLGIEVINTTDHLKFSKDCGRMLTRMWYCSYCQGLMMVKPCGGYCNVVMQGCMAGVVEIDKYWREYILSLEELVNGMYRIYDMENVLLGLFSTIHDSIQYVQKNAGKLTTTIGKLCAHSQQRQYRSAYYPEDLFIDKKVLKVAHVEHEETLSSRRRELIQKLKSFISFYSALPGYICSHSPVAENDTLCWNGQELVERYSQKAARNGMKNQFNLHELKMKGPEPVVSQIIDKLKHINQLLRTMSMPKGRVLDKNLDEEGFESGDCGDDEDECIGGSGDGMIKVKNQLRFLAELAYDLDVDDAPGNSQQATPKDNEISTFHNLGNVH
Method: as §1

recombinant mouse GPC2 = molecular target: T3, recombinant mouse GPC2; assay: monoclonal phage ELISA on recombinant glypicans
Method: as §1

[2] = molecular target: T1, recombinant GPC2-hFc fusion protein; assay: Octet RED96 BLI, biotinylated GPC2-hFc on streptavidin biosensors, 30 °C
Method: (§2) Briefly, all experiments were performed at 30° C. and reagents were prepared in 0.1% BSA, 0.1% Tween20 PBS, pH 7.4 buffer. […] Data analysis was performed using the Fort\tilde{e}Bio analysis software provided with the instrument.

[3] = molecular target: T1, recombinant GPC2-hFc fusion protein; assay: Octet RED96 biolayer interferometry, biotinylated GPC2-hFc on streptavidin biosensors, LH7 at 1000, 500 and 100 nM
Method: as §2

[4] = molecular target: T1, recombinant GPC2-hFc fusion protein; assay: ELISA, coated GPC2-hFc, detection with anti-Pseudomonas exotoxin A antibody
Method: Then a series of diluted immunotoxins were added to each well. Anti-Pseudomonas exotoxin A antibody (Sigma-Aldrich) and HRP-conjugated secondary antibody (Jackson Immunoresearch) were used to detect binding. EC₅₀ values were determined by Prism 6.0 software (GraphPad).

[5] = molecular target: T1, recombinant GPC2-hFc fusion protein; assay: ELISA on coated GPC2-hFc, detection with anti-Pseudomonas exotoxin A antibody and HRP secondary

Row | Binder | fold OD450 nm on GPC2-hFc over BSA [1] [fold] | binding result (recombinant human GPC1) | binding result (recombinant human GPC3) | binding result (recombinant mouse GPC2) | EC50 [5] [nM] | further results
1 | B1 | ≥ 5 | no binding | no binding | binds | – | –
2 | B2 | ≥ 5 | no binding | no binding | no binding | – | –
3 | B3 | ≥ 5 | binds | – | binds | – | –
4 | B4 | – | – | – | – | – | Kd [2]: 9.8 nM; koff [3]: 0.00052 s⁻¹; kon [3]: 53100 M⁻¹ s⁻¹
5 | B5 | – | – | – | – | 18.4 | EC50 [4]: 18 nM; EC50 (read off the curve) [5]: ~1 µg/mL
6 | B6 | ≥ 5 | no binding | no binding | no binding | – | –
7 | B7 | ≥ 5 | no binding | no binding | binds | – | –
8 | B8 | – | – | – | – | 43.9 | –
9 | B9 | – | – | – | – | 4.55 | EC50 (read off the curve) [5]: ~0.2 µg/mL
10 | B10 | ≥ 5 | no binding | no binding | no binding | – | –
